# Where two headings read alike, the source gives them in different places.
# T1: human IL3 (human, UniProt P08700 20-152)
# T1 sequence: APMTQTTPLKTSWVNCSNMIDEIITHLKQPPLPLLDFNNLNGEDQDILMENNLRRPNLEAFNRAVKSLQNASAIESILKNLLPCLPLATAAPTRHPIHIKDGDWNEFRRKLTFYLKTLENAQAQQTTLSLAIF
# T2: IL3 peptide, amino acids 22-48 (mature) / 41-67 (native) (human)
# T2 construct: Linear peptide derived from human IL3, coated on the plate
# T2 peptide: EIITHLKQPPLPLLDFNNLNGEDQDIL
# T3: IL3 peptide, amino acids 26-48 (mature) / 45-67 (native) (human)
# T3 construct: Peptide in which amino acids 22-25 are deleted
# T3 peptide: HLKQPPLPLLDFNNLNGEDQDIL
# T4: IL3 peptide, amino acids 28-48 (mature) / 47-67 (native) (human)
# T4 construct: Peptide in which amino acids 22-27 are deleted
# T4 peptide: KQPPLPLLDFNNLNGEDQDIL
# Experiments:
# [1] = target: T1, human IL3; assay: cell-based or functional assay
# [2] = target: T2, IL3 peptide, amino acids 22-48 (mature) …; assay: ELISA on coated linear IL3 peptide
# Procedure: (§1) Peptides were coated overnight in PBS in Nunclon 96 Flat Bottom Transparent Polystyrol plates (Thermo Fisher) at a concentration of 10 μg/ml (60 μl/well). Then […] were washed three times with wash buffer (0.05% Tween 20 in PBS), followed by blocking for 2 hours at room temperature with 1% BSA/PBS. After another washing step with wash buffer, antibody GRT002-H16L2 was added (60 μl of a 10 μg/ml solution in 1% BSA/PBS) and incubated for 1 hour at room temperature. 1% BSA/PBS served as a control. After another washing step, GRT002-H16L2 was incubated with a secondary antibody (HRP-conjugated AffinePure fragment goat anti-human IgG; Jackson Immuno Research) for 1 hour at room temperature. After a final washing step, 100 μl of ABTS (2,2′-azino-bis(3-ethylbenzothiazoline-6-sulfonic acid) was added to each well. Absorption was measured in a infinite 200Pro reader (Tecan) at 405 nm.
# [3] = target: T3, IL3 peptide, amino acids 26-48 (mature) …; assay: ELISA on coated linear IL3 peptide
# Procedure: as §1
# [4] = target: T4, IL3 peptide, amino acids 28-48 (mature) …; assay: ELISA on coated linear IL3 peptide
# Procedure: as §1
# [5] = target: T1, human IL3; assay: cell-based or functional assay; remark: listed apart in the source
# [6] = target: T1, human IL3; assay: cell-based or functional assay; remark: listed apart in the source
# [7] = target: T1, human IL3; assay: cell-based or functional assay; remark: listed apart in the source
# [8] = target: T1, human IL3; assay: cell-based or functional assay; remark: listed apart in the source
# [9] = target: T1, human IL3; assay: cell-based or functional assay; remark: listed apart in the source
Binder,Inhibitory activity (block of IL-3 induced downregulation of CD131 on primary human basophils; chimeric P8C11 normalized to 100%) [6],Inhibitory activity (block of IL-3 induced downregulation of CD131 on primary human basophils; chimeric P8C11 normalized to 100%) [7],Inhibitory activity (block of IL-3 induced downregulation of CD131 on primary human basophils; chimeric P8C11 normalized to 100%) [8],other results
"GRT002-H16L2 (antibody, human IgG1, kappa, V domains shown, IgG1 of the G1m3 (heavy chain) and KM3 (light chain) allotype, lacks the C-terminal lysine; also called HC16 × LC2; humanized derivative of antibody P8C11) VH: QVQLVQSGAEVKKPGASVKVSCKGSGFTFTDYALHWVRQAPGQRLEWMGLISTYYGDTTYNQRFKGRVTMTVDKSTSTAYMELSSLRSEDTAVYYCVITTVAGTDAMDYWGQGTLVTVSS VL: DIQMTQSPSSLSASVGDRVTITCHASQNINVWLSWYQQKPGKAPKLLIYKASNLHTGVPSRFSGSGSGTDFTFTISSLQPEDIATYYCQQGYSYPYTFGGGTKLEIKR",–,–,–,Inhibitory activity (block of IL-3 induced downregulation of CD131 on primary human basophils; chimeric P8C11 normalized to 100%) [1]: 100%; binding result [2]: binds; binding result [3]: binds; binding result [4]: binds
"Chimeric P8C11 (antibody, V domains shown) VH: QVQLQQSGAEMVRPGVSVKIACKGSGFTFTDYALHWVKQSHAKSLEWIGLISTYYGDTTYNQRFKGKATMTVDKSSSTAYMELARLTSEDSAIYYCVITTVAGTDAMDYWGQGTSVTVSS VL: DIQMNQSPSSLSASLGDTITITCHASQNINVWLSWYQQKPGNIPKLLIYKASNLHTGVPSRFSGSGSGTGFTLTISSLQPEDIATYYCQQGYSYPYTFGGGTKLEIK",100%,100%,100%,Inhibitory activity (block of IL-3 induced downregulation of CD131 on primary human basophils; chimeric P8C11 normalized to 100%) [5]: 100%; Inhibitory activity (block of IL-3 induced downregulation of CD131 on primary human basophils; chimeric P8C11 normalized to 100%) [9]: 100%; Inhibitory activity (block of IL-3 induced downregulation of CD131 on primary human basophils; chimeric P8C11 normalized to 100%) [1]: 100%
"HC3.MHM × muLC (antibody, V domains shown) VH: QVQLQQSGAEMVRPGVSVKIACKGSGFTFTDYALHWVRQAPGQRLEWMGLISTYYGDTTYNQRFKGKATMTVDKSSSTAYMELARLTSEDSAIYYCVITTVAGTDAMDYWGQGTSVTVSS VL: DIQMNQSPSSLSASLGDTITITCHASQNINVWLSWYQQKPGNIPKLLIYKASNLHTGVPSRFSGSGSGTGFTLTISSLQPEDIATYYCQQGYSYPYTFGGGTKLEIK",–,100%,–,–
"HC3 × MuLC (antibody, V domains shown) VH: QVQLVQSGAEMKKPGASVKVACKGSGFTFTDYALHWVRQAPGQRLEWMGLISTYYGDTTYNQRFKGRVTITRDTSASTAYMELSSLRSEDTAIYYCVITTVAGTDAMDYWGQGTLVTVSS VL: DIQMNQSPSSLSASLGDTITITCHASQNINVWLSWYQQKPGNIPKLLIYKASNLHTGVPSRFSGSGSGTGFTLTISSLQPEDIATYYCQQGYSYPYTFGGGTKLEIK",6%,–,–,–
"MuHC × LC2 (antibody, V domains shown) VH: QVQLQQSGAEMVRPGVSVKIACKGSGFTFTDYALHWVKQSHAKSLEWIGLISTYYGDTTYNQRFKGKATMTVDKSSSTAYMELARLTSEDSAIYYCVITTVAGTDAMDYWGQGTSVTVSS VL: DIQMTQSPSSLSASVGDRVTITCHASQNINVWLSWYQQKPGKAPKLLIYKASNLHTGVPSRFSGSGSGTDFTFTISSLQPEDIATYYCQQGYSYPYTFGGGTKLEIK",100%,–,–,–
"HC5 × LC2 (antibody, V domains shown) VH: QVQLVQSGAEMKKPGASVKVACKGSGFTFTDYALHWVRQAPGQRLEWMGLISTYYGDTTYNQRFKGRVTITRDTSASTAYMELARLTSEDSAIYYCVITTVAGTDAMDYWGQGTSVTVSS VL: DIQMTQSPSSLSASVGDRVTITCHASQNINVWLSWYQQKPGKAPKLLIYKASNLHTGVPSRFSGSGSGTDFTFTISSLQPEDIATYYCQQGYSYPYTFGGGTKLEIK",–,–,9%,–

# Second part, led by results:
Inhibitory activity (block of IL-3 induced downregulation of CD131 on primary human basophils; chimeric P8C11 normalized to 100%) [6],Inhibitory activity (block of IL-3 induced downregulation of CD131 on primary human basophils; chimeric P8C11 normalized to 100%) [7],Inhibitory activity (block of IL-3 induced downregulation of CD131 on primary human basophils; chimeric P8C11 normalized to 100%) [8],Binder,other results
–,–,100%,"HC6 × LC2 (antibody, V domains shown) VH: QVQLVQSGAEMKKPGASVKVACKGSGFTFTDYALHWVRQAPGQRLEWMGLISTYYGDTTYNQRFKGRVTMTVDKSSSTAYMELSSLRSEDTAIYYCVITTVAGTDAMDYWGQGTLVTVSS VL: DIQMTQSPSSLSASVGDRVTITCHASQNINVWLSWYQQKPGKAPKLLIYKASNLHTGVPSRFSGSGSGTDFTFTISSLQPEDIATYYCQQGYSYPYTFGGGTKLEIK",–
–,–,100%,"HC4 × LC2 (antibody, V domains shown) VH: QVQLVQSGAEMKKPGASVKVACKGSGFTFTDYALHWVRQAPGQRLEWMGLISTYYGDTTYNQRFKGKATMTVDKSSSTAYMELSSLRSEDTAIYYCVITTVAGTDAMDYWGQGTLVTVSS VL: DIQMTQSPSSLSASVGDRVTITCHASQNINVWLSWYQQKPGKAPKLLIYKASNLHTGVPSRFSGSGSGTDFTFTISSLQPEDIATYYCQQGYSYPYTFGGGTKLEIK",–
–,100%,–,"HC3.HMM × muLC (antibody, V domains shown) VH: QVQLVQSGAEMKKPGASVKVACKGSGFTFTDYALHWVKQSHAKSLEWIGLISTYYGDTTYNQRFKGKATMTVDKSSSTAYMELARLTSEDSAIYYCVITTVAGTDAMDYWGQGTSVTVSS VL: DIQMNQSPSSLSASLGDTITITCHASQNINVWLSWYQQKPGNIPKLLIYKASNLHTGVPSRFSGSGSGTGFTLTISSLQPEDIATYYCQQGYSYPYTFGGGTKLEIK",–

# Reference: patent US20250382362A1 (UNIVERSIT TSKLINIKUM REGENSBURG, published 2025)
